Measurements taken from publication PMC3989777 (Cell Reports, 2014).
Where a SMILES comes first, the peptide text is derived from it. Where no end group is shown, it is not given here. [ ]: non-standard residue; d: D form. pS = N[C@@H](COP(=O)(O)O)C(=O)O

Legend:
[1] = target: PIH1D1 (1-180) (Homo sapiens, UniProt Q9NWS0); assay: ITC of phosphopeptide binding to PIH1D1 1-180
[2] = target: PIH1D1 1–180 (human, UniProt Q9NWS0 1-180); assay: ITC
PIH1D1 1–180, sequence (Q9NWS0 1-180): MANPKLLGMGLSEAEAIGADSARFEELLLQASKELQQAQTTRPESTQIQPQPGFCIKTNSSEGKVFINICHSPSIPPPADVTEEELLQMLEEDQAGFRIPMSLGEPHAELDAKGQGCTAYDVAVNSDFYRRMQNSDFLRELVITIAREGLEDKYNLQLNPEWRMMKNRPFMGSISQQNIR

PIH1D1 (1-180), sequence (Q9NWS0 1-180): as above

higher affinity relative to the TEL2 peptide phosphorylated on Ser491 [1]	Kd [2]	Molecule
2- to 3 fold	–	CC(C)C[C@H](NC(=O)[C@H](CC(=O)O)NC(=O)[C@H](COP(=O)(O)O)NC(=O)[C@H](CC(=O)O)NC(=O)[C@H](CO)NC(=O)CNC(=O)[C@H](C)NC(=O)[C@@H](N)Cc1ccc(O)cc1)C(=O)N[C@@H](CC(=O)O)C(=O)N[C@@H](COP(=O)(O)O)C(=O)N[C@@H](CC(=O)O)C(=O)N[C@@H](CC(=O)O)C(=O)N[C@@H](CCC(=O)O)C(=O)N[C@@H](Cc1ccccc1)C(=O)N[C@H](C(=O)N1CCC[C@H]1C(=O)N[C@@H](Cc1ccc(O)cc1)C(N)=O)C(C)C (H-YAGSD[pS]DLD[pS]DDEFVPY-NH2)
–	3.5 µM	YAGSDSDLD[pS]DDEFVPY (also: phosphoserine at Ser491, place not mappable) [TEL2 peptide phosphorylated on Ser491]
–	16 µM	RPNESD[pS]DDLDDY [ECD peptide RPNESDpS505DDLDDY]
